Assay results from article PMC3711072, “The Activity of CCL18 is Principally Mediated through Interaction with Glycosaminoglycans” (Frontiers in Immunology, 2013).
Several values for one entry are separate records, joined by “and”; a condition that tells them apart may be missing. Identical values can stand only once.

B3: CC chemokine ligand 18 (CCL18) (ligand, human, UniProt P55774 21-89, looked up)
chain: AQVGTNKELCCLVYTSWQIPQKFIVDYSETSPQCPKPGVILLTKRGRQICADPNKKWVQKYISDLKLNA

Columns and labels:
CCR3 [1] = biological target: T1, CCR3 (UniProt P51677 1-355); assay: radioligand binding; equilibrium competition binding of 125I-CCL18 on L1.2/CCR3 transfectants, increasing concentration of unlabelled competitor; conditions: one partner purified
T1 construct: CC chemokine receptor CCR3 expressed on L1.2 transfectants; In the functional rows on internalisation the CCR3 is the endogenous receptor of human eosinophils; also called CCR3 on L1.2/CCR3 transfectants; source: L1.2/CCR3 transfectants, on cells
T1 sequence (looked up): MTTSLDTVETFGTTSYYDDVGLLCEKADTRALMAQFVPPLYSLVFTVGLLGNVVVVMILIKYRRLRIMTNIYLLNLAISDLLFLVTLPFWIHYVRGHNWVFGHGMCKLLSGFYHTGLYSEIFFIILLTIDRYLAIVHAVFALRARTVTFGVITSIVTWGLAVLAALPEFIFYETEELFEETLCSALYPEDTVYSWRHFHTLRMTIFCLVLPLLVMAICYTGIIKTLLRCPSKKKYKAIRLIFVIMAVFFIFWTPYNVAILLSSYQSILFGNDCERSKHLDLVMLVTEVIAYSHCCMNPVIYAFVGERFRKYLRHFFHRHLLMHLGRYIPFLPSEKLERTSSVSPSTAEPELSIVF

[2] = biological target: T2, Radiolabeled CCL18 (125I-CCL18) (human, UniProt P55774 21-89, 125I label (radiolabeled; residue not stated)); assay: radioligand binding; equilibrium competition: increasing concentration of Evasin against 125I-CCL18 binding to L1.2/CCR3 transfectants; Evasin binds the tracer; conditions: both partners purified
T2 construct: CCL18, radioiodinated; also called tracer; source: bought: Anawa
T2 sequence (looked up): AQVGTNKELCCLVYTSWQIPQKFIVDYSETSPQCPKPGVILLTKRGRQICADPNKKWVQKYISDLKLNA

[3] = biological target: B3; assay: SEC; 500 ug CCL18 and an equimolar amount of Evasin incubated 45 min at RT in PBS, Superdex 75 in PBS, 1.5 ml/min, calibrated column; fractions on silver stained SDS-PAGE; CCL18 and Evasins also run alone; conditions: both partners purified
CCR3 [4] = biological target: T1, CCR3; assay: cell-based or functional assay

B1: CCL11 (ligand)
chain: not shown
notes: chemokine CCL11; source: obtained from PeptroTech or produced as previously described (17)
- IC50 (CCR3 [1]): 4.99 nM

B2: Evasin-1 (natural protein)
chain: EDDEDYGDLGGCPFLVAENKTGYPTIVACKQDCNGTTETAPNGTRCFSIGDEGLRRMTANLPYDCPLGQCSNGDCIPKETYEVCYRRNWRDKKN
modifications: glycosylated (sites not given)
notes: source: produced as previously described (18, 19)
- IC50 [2]: 9.92 nM and 7.94 nM
- stoichiometry N [3]: 1

Binder: B3
- inhibition of CCL11-induced chemotaxis of L1.2/CCR3 transfectants by CCL18 previously incubated with a twofold molar excess of Evasin-3 (no effect of Evasin-3), IC50, n = 3 (CCR3 [4]): 446 nM
- inhibition of CCL11-induced chemotaxis of L1.2/CCR3 transfectants by CCL18 with Evasin-3 as a control, IC50 of the experiment shown (CCR3 [4]): 421 nM
- inhibition of migration of L1.2/CCR3 transfectants to 1 nM CCL11 (blocks CCL11-CCR3), IC50 of the experiment shown (CCR3 [4]): 557 nM
- inhibition of the chemotactic response of L1.2/CCR3 transfectants induced by 1 nM CCL11 (blocks CCL11-CCR3), IC50, mean of n = 7 (CCR3 [4]): 318 nM

B4: Evasin-4 (natural protein)
chain: EVPQMTSSSAPDLEEEDDYTAYAPLTCYFTNSTLGLLAPPNCSVLCNSTTTWFNETSPNNASCLLTVDFLTQDAILQENQPYNCSVGHCDNGTCAGPPRHAQCW
modifications: glycosylated (sites not given)
notes: as for B2
- IC50 [2]: 0.015 nM and 0.03 nM
- stoichiometry N [3]: 1
